Results as given in patent US20250320305A1 (Hoffmann-La Roche, published 2025).

Experiments:
[1] = target: T1, biotinylated recombinant human FAP (human, UniProt Q12884 26-760, biotinylated); experiment: SPR (Biacore), biotinylated huFAP on CAPture chip, Fab analyte
T1 construct: also called biotinylated human FAP
Protocol: As running and dilution buffer, HBS-P+ (10 mM HEPES, 150 mM NaCl pH 7.4, 0.05% Surfactant P20) was used. A dilution series of anti-huFAP Fabs (3.7-300 nM, 1:3 dilution) was successively injected for 120 s each, dissociation was monitored for 1800 s at a flow rate of 30 μl/min (single cycle kinetics). The surface was regenerated by injecting 6 M guanidine-HCl, 0.25 M NaOH for 120 s. Bulk refractive index differences were corrected by subtracting blank injections and by subtracting the response obtained from the control flow cell without captured human FAP. Curve fitting was performed using the 1:1 Langmuir binding model within the Biacore evaluation software.

[2] = target: T1, biotinylated recombinant human FAP; experiment: SPR (Biacore), biotinylated recombinant human FAP
[3] = target: T2, human Fibroblast Activation Protein (FAP) expressed on cells (human, UniProt Q12884 1-760); experiment: flow cytometry, huFAP-transfected HEK cells
T2 construct: Cell-surface human FAP on transfected HEK or NIH/3T3 cells; also called huFAP; human FAP-transfected HEK cells
Protocol: (§1) The binding of anti-FAP antibodies with a human IgG1 P329G LALA Fc to human FAP was determined by flow cytometry using human FAP-transfected HEK cells. Briefly, the target cells were harvested with Cell Dissociation buffer, washed with FACS Buffer (PBS+2% FCS+5 mM EDTA+0.25% sodium acide) and seeded into 96-U bottom plates (1×10^5 cells/well). Unlabeled primary antibodies were added to the cells (final concentrations 10 μg/ml to 0.64 ng/ml; 1:5 dilutions) and incubated for 30 min at 4° C. After washing, cells were incubated with a PE-conjugated AffiPure F(ab)₂ Fragment Goat anti-human IgG, Fc□ specific (Jackson Immunoresearch) for 30 min at 4° C. in the dark. Afterwards, cells were washed, fixed and measured using a BD FACS LSR Fortessa™.

[4] = target: T2, human Fibroblast Activation Protein …; experiment: flow cytometry, human FAP-transfected HEK cells
Protocol: as §1

[5] = target: T3, cynomolgus FAP expressed on cells (cynomolgus); experiment: flow cytometry, cells expressing cynomolgus FAP
T3 construct: whole, on cells

[6] = target: biotinylated recombinant cynomolgus FAP (cynomolgus); experiment: SPR (Biacore), biotinylated recombinant cynomolgus FAP
[7] = target: T4, human DPP-IV expressed on transfected HEK cells (human, UniProt P27487 1-766); experiment: flow cytometry, human DPPIV-transfected HEK cells
T4 construct: whole, on cells; also called dipeptidyl peptidase IV
Protocol: Binding to human FAP and human DPP-IV was determined by flow cytometry using human FAP or human DPPIV-transfected HEK cells. Briefly, the target cells were harvested with Cell Dissociation buffer, washed with FACS Buffer (PBS+2% FCS+5 mM EDTA+0.25% sodium acide) and seeded into 96-U bottom plates (1×10⁵ cells/well). Unlabeled primary antibodies were added to the cells (final concentration 10 μg/ml) and incubated for 30 min at 4° C. After washing, cells were incubated with a goat anti-mouse IgG-PE F(ab′)₂ (Serotec) for 30 min at 4° C. in the dark. Afterwards, cells were washed, fixed and measured using a BD FACS Canto™ II.

[8] = target: T5, human CD40 expressed on cells (human, UniProt P25942 21-277); experiment: cell-based or functional assay
[9] = target: T2, human Fibroblast Activation Protein …; experiment: flow cytometry, NIH/3T3-huFAP cells
Protocol: (§2) Plates were centrifuged 5 minutes at 1700 rpm and supernatants were flicked off. […] All samples were resuspended in 50 μL/well of 4° C. cold FACS buffer containing the bispecific antigen binding molecules (primary antibody) or the isotype control antibody DP47 at the indicated range of concentrations (in duplicates) and incubated for 120 minutes at 4° C. Afterwards the cells were washed three times with 200 μL 4° C. cold FACS buffer. […] Data analysis was performed using the FlowJo version 10 software (FlowJo LLC).

[10] = target: T5, human CD40 expressed on cells; experiment: flow cytometry, primary human B cells
Protocol: as §2

[11] = target: T6, His-tagged human FAP ectodomain (human, UniProt Q12884 27-760); experiment: SPR, His-tagged human FAP ectodomain as ligand
T6 construct: also called hu FAP ectodomain+poly-lys-tag+his6-tag; His-tagged FAP antigen

T4 sequence (P27487 whole entry): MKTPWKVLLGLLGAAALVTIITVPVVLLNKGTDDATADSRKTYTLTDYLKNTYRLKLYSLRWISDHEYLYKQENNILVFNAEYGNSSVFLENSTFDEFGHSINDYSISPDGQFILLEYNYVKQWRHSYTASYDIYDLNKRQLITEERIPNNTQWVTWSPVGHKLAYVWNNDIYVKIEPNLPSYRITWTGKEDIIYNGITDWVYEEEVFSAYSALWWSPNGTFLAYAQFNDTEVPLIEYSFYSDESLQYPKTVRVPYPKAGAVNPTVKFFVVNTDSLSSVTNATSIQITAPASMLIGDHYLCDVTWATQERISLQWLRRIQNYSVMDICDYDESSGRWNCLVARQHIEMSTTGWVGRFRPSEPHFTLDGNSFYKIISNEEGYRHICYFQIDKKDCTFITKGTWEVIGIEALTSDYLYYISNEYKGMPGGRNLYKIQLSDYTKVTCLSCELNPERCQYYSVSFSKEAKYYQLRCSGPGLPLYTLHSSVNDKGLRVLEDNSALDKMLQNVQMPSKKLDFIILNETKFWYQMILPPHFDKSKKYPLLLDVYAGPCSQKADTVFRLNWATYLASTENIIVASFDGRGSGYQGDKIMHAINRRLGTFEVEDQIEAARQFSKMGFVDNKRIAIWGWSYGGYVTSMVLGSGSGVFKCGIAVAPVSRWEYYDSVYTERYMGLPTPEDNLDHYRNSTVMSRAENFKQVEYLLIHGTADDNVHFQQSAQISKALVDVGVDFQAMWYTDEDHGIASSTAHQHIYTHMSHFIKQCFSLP

B1: P1AD9438_Fab (clone 212 Fab) (Fab, V domains shown)
VH: EVLLQQSGPELVKPGASVKIACKASGYTLTDYNMDWVRQSHGKSLEWIGDIYPNTGGTIYNQKFKGKATLTIDKSSSTAYMDLRSLTSEDTAVYYCTRFRGIHYAMDYWGQGTSVTVSS
VL: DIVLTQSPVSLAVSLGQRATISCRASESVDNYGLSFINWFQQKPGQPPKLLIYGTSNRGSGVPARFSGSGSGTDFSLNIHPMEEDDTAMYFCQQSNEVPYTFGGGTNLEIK
notes: Fab
Kd [1]: < 10 pM | koff [1]: < 1e-06 s⁻¹ | kon [1]: 1.06e+06 M⁻¹ s⁻¹ | Kd [2]: 120 pM

B2: P1AD9438, anti-FAP clone 212 as huIgG1 P329G LALA (antibody, V domains shown)
VH: EVLLQQSGPELVKPGASVKIACKASGYTLTDYNMDWVRQSHGKSLEWIGDIYPNTGGTIYNQKFKGKATLTIDKSSSTAYMDLRSLTSEDTAVYYCTRFRGIHYAMDYWGQGTSVTVSS
VL: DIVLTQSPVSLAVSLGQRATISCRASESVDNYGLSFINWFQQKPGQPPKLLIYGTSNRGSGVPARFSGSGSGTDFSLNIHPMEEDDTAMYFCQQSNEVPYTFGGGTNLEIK
EC50 [3]: 0.118 µg/mL | EC50 [4]: 0.12 µg/mL | EC50 [5]: 0.3 µg/mL | Kd [6]: 140 pM

B3: murine anti-human FAP antibody clone 212 (hybridoma-derived) (antibody, IgG1, V domains shown)
VH: EVLLQQSGPELVKPGASVKIACKASGYTLTDYNMDWVRQSHGKSLEWIGDIYPNTGGTIYNQKFKGKATLTIDKSSSTAYMDLRSLTSEDTAVYYCTRFRGIHYAMDYWGQGTSVTVSS
VL: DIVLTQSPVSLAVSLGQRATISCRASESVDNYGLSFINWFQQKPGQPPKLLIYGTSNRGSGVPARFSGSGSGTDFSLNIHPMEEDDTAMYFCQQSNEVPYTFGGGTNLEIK
notes: mu IgG1
binding result [7]: no binding (tested: 10 µg/ml)

B4: anti-FAP antibody 4B9 (antibody, V domains shown)
VH: EVQLLESGGGLVQPGGSLRLSCAASGFTFSSYAMSWVRQAPGKGLEWVSAIIGSGASTYYADSVKGRFTISRDNSKNTLYLQMNSLRAEDTAVYYCAKGWFGGFNYWGQGTLVTVSS
VL: EIVLTQSPGTLSLSPGERATLSCRASQSVTSSYLAWYQQKPGQAPRLLINVGSRRATGIPDRFSGSGSGTDFTLTISRLEPEDFAVYYCQQGIMLPPTFGQGTKVEIK
EC50 [3]: 0.089 µg/mL

B5: P1AA9663, CD40 (huCD40) x FAP (28H1) (2+2) C-terminal crossfab fusion (bispecific antibody, human IgG1, kappa, L234A L235A)
light 1: EVQLLESGGGLVQPGGSLRLSCAASGFTFSSHAMSWVRQAPGKGLEWVSAIWASGEQYYADSVKGRFTISRDNSKNTLYLQMNSLRAEDTAVYYCAKGWLGNFDYWGQGTLVTVSSASVAAPSVFIFPPSDEQLKSGTASVVCLLNNFYPREAKVQWKVDNALQSGNSQESVTEQDSKDSTYSLSSTLTLSKADYEKHKVYACEVTHQGLSSPVTKSFNRGEC
light 2: DIQMTQSPSSLSASVGDRVTITCRSSQSLVHSNGNTFLHWYQQKPGKAPKLLIYTVSNRFSGVPSRFSGSGSGTDFTLTISSLQPEDFATYFCSQTTHVPWTFGQGTKVEIKRTVAAPSVFIFPPSDRKLKSGTASVVCLLNNFYPREAKVQWKVDNALQSGNSQESVTEQDSKDSTYSLSSTLTLSKADYEKHKVYACEVTHQGLSSPVTKSFNRGEC
heavy: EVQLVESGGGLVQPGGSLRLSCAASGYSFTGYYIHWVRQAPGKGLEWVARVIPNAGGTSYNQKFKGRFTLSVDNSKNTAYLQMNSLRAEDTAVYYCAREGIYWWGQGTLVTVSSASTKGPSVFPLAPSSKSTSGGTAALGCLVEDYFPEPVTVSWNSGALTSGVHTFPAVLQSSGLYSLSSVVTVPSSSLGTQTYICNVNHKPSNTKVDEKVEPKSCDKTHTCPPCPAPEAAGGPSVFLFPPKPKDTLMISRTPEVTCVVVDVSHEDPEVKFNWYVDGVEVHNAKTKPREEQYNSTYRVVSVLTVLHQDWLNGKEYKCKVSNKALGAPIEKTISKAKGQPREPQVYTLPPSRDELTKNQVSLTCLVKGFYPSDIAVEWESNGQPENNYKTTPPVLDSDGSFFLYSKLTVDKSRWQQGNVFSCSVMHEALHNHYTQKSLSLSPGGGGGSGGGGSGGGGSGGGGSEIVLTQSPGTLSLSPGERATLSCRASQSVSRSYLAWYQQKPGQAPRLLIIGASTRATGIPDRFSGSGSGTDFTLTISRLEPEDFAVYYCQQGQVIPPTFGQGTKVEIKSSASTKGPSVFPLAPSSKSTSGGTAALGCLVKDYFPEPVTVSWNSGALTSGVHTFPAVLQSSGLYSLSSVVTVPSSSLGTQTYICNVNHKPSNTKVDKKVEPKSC
EC50, two cell line bridging assay (SEAP of HEK-Blue CD40L reporter cells with FAP-expressing WM-266-4 cells) [8]: 13.2 pM

B6: P1AE2423, CD40 (P1AE0817) x FAP (P1AE1689) (2+1) C-terminal crossfab fusion (bispecific antibody, human IgG1, kappa, L234A L235A)
light 1: QVQLVQSGAEVKKPGASVKVSCKASGYTLTDYNMDWVRQAPGQGLEWIGDIYPNTGGTIYNQKFKGRVTMTIDTSTSTVYMELSSLRSEDTAVYYCTRFRGIHYAMDYWGQGTTVTVSSASVAAPSVFIFPPSDEQLKSGTASVVCLLNNFYPREAKVQWKVDNALQSGNSQESVTEQDSKDSTYSLSSTLTLSKADYEKHKVYACEVTHQGLSSPVTKSFNRGEC
light 2: DIVMTQTPLSLSVTPGQPASISCRSSQSLVHSNGNTFLHWYLQKPGQSPQLLIYTVSNRFSGVPDRFSGSGSGTDFTLKISRVEAEDVGVYFCSQTTHVPWTFGGGTKVEIKRTVAAPSVFIFPPSDRKLKSGTASVVCLLNNFYPREAKVQWKVDNALQSGNSQESVTEQDSKDSTYSLSSTLTLSKADYEKHKVYACEVTHQGLSSPVTKSFNRGEC
heavy 1: not shown
heavy 2: QVQLVQSGAEVKKPGASVKVSCKASGYSFTGYYIHWVRQAPGQSLEWMGRVIPNAGGTSYNQKFKGRVTLTVDKSISTAYMELSRLRSDDTAVYYCAREGIYWWGQGTTVTVSSASTKGPSVFPLAPSSKSTSGGTAALGCLVEDYFPEPVTVSWNSGALTSGVHTFPAVLQSSGLYSLSSVVTVPSSSLGTQTYICNVNHKPSNTKVDEKVEPKSCDKTHTCPPCPAPEAAGGPSVFLFPPKPKDTLMISRTPEVTCVVVDVSHEDPEVKFNWYVDGVEVHNAKTKPREEQYNSTYRVVSVLTVLHQDWLNGKEYKCKVSNKALGAPIEKTISKAKGQPREPQVCTLPPSRDELTKNQVSLSCAVKGFYPSDIAVEWESNGQPENNYKTTPPVLDSDGSFFLVSKLTVDKSRWQQGNVFSCSVMHEALHNHYTQKSLSLSPG
notes: bivalent for CD40, monovalent for FAP; also called VL-CH1 fused to Fc
EC50, two cell line bridging assay (SEAP of HEK-Blue CD40L reporter cells with FAP-expressing WM-266-4 cells) [8]: 3.2 pM | EC50 [9]: 5190 pM | EC50 [10]: 95 pM | Kd [11]: 94 pM | koff [11]: 3.2e-05 s⁻¹ | kon [11]: 340000 M⁻¹ s⁻¹

B7: P1AE2487, CD40 (P1AE0817) x FAP (4B9) (2+1) C-terminal crossfab fusion (bispecific antibody, human IgG1, kappa, L234A L235A)
light 1: EIVLTQSPGTLSLSPGERATLSCRASQSVTSSYLAWYQQKPGQAPRLLINVGSRRATGIPDRFSGSGSGTDFTLTISRLEPEDFAVYYCQQGIMLPPTFGQGTKVEIKSSASTKGPSVFPLAPSSKSTSGGTAALGCLVKDYFPEPVTVSWNSGALTSGVHTFPAVLQSSGLYSLSSVVTVPSSSLGTQTYICNVNHKPSNTKVDKKVEPKSC
light 2: DIVMTQTPLSLSVTPGQPASISCRSSQSLVHSNGNTFLHWYLQKPGQSPQLLIYTVSNRFSGVPDRFSGSGSGTDFTLKISRVEAEDVGVYFCSQTTHVPWTFGGGTKVEIKRTVAAPSVFIFPPSDEQLKSGTASVVCLLNNFYPREAKVQWKVDNALQSGNSQESVTEQDSKDSTYSLSSTLTLSKADYEKHKVYACEVTHQGLSSPVTKSFNRGEC
heavy 1: not shown
heavy 2: QVQLVQSGAEVKKPGASVKVSCKASGYSFTGYYIHWVRQAPGQSLEWMGRVIPNAGGTSYNQKFKGRVTLTVDKSISTAYMELSRLRSDDTAVYYCAREGIYWWGQGTTVTVSSASTKGPSVFPLAPSSKSTSGGTAALGCLVKDYFPEPVTVSWNSGALTSGVHTFPAVLQSSGLYSLSSVVTVPSSSLGTQTYICNVNHKPSNTKVDKKVEPKSCDKTHTCPPCPAPEAAGGPSVFLFPPKPKDTLMISRTPEVTCVVVDVSHEDPEVKFNWYVDGVEVHNAKTKPREEQYNSTYRVVSVLTVLHQDWLNGKEYKCKVSNKALGAPIEKTISKAKGQPREPQVCTLPPSRDELTKNQVSLSCAVKGFYPSDIAVEWESNGQPENNYKTTPPVLDSDGSFFLVSKLTVDKSRWQQGNVFSCSVMHEALHNHYTQKSLSLSPG
notes: bivalent for CD40, monovalent for FAP; also called CD40 x FAP (4B9) 2+1 crossfab
EC50 [10]: 86 pM

B8: P1AE2302, CD40 (P1AE0817) x FAP (28H1) (2+1) C-terminal crossfab fusion (bispecific antibody, human IgG1, kappa, L234A L235A)
light 1: EVQLLESGGGLVQPGGSLRLSCAASGFTFSSHAMSWVRQAPGKGLEWVSAIWASGEQYYADSVKGRFTISRDNSKNTLYLQMNSLRAEDTAVYYCAKGWLGNFDYWGQGTLVTVSSASVAAPSVFIFPPSDEQLKSGTASVVCLLNNFYPREAKVQWKVDNALQSGNSQESVTEQDSKDSTYSLSSTLTLSKADYEKHKVYACEVTHQGLSSPVTKSFNRGEC
light 2: DIVMTQTPLSLSVTPGQPASISCRSSQSLVHSNGNTFLHWYLQKPGQSPQLLIYTVSNRFSGVPDRFSGSGSGTDFTLKISRVEAEDVGVYFCSQTTHVPWTFGGGTKVEIKRTVAAPSVFIFPPSDRKLKSGTASVVCLLNNFYPREAKVQWKVDNALQSGNSQESVTEQDSKDSTYSLSSTLTLSKADYEKHKVYACEVTHQGLSSPVTKSFNRGEC
heavy 1: not shown
heavy 2: QVQLVQSGAEVKKPGASVKVSCKASGYSFTGYYIHWVRQAPGQSLEWMGRVIPNAGGTSYNQKFKGRVTLTVDKSISTAYMELSRLRSDDTAVYYCAREGIYWWGQGTTVTVSSASTKGPSVFPLAPSSKSTSGGTAALGCLVEDYFPEPVTVSWNSGALTSGVHTFPAVLQSSGLYSLSSVVTVPSSSLGTQTYICNVNHKPSNTKVDEKVEPKSCDKTHTCPPCPAPEAAGGPSVFLFPPKPKDTLMISRTPEVTCVVVDVSHEDPEVKFNWYVDGVEVHNAKTKPREEQYNSTYRVVSVLTVLHQDWLNGKEYKCKVSNKALGAPIEKTISKAKGQPREPQVCTLPPSRDELTKNQVSLSCAVKGFYPSDIAVEWESNGQPENNYKTTPPVLDSDGSFFLVSKLTVDKSRWQQGNVFSCSVMHEALHNHYTQKSLSLSPG
EC50, two cell line bridging assay (SEAP of HEK-Blue CD40L reporter cells with FAP-expressing WM-266-4 cells) [8]: 2.5 pM
